{"source": "paper PMC3001195", "about": "(Structure (London, England : 1993), 2010)", "key": {"[1]": {"biological_target": "the molecule itself", "assay": "negative-stain electron microscopy"}, "[2]": {"biological_target": "the molecule itself", "assay": "crystal structure"}, "[3]": {"biological_target": "the molecule itself", "assay": "SEC"}}}
{"protein": "NtrC1^C,WT, central (AAA+ ATPase) domain of NtrC1 of Aquifex aeolicus (domain or fragment) RKENELLRREKDLKEEEYVFESPKMKEILEKIKKISCAECPVLITGESGVGKEVVARLIHKLSDRSKEPFVALNVASIPRDIFEAELFGYEKGAFTGAVSSKEGFFELADGGTLFLDEIGELSLEAQAKLLRVIESGKFYRLGGRKEIEVNVRILAATNRNIKELVKEGKFREDLYYRLGVIEIEIPPLRERKEDIIPLANHFLKKFSRKYAKEVEGFTKSAQELLLSYPWYGNVRELKNVIERAVLFSEGKFIDRGELSCLVNSK", "values": [{"measurement": "stoichiometry N", "setting": "[1]", "value": 7}]}
{"protein": "NtrC1^C,E239A, Walker-B variant of the central domain of NtrC1 of Aquifex aeolicus (domain or fragment) RKENELLRREKDLKEEEYVFESPKMKEILEKIKKISCAECPVLITGESGVGKEVVARLIHKLSDRSKEPFVALNVASIPRDIFEAELFGYEKGAFTGAVSSKEGFFELADGGTLFLDAIGELSLEAQAKLLRVIESGKFYRLGGRKEIEVNVRILAATNRNIKELVKEGKFREDLYYRLGVIEIEIPPLRERKEDIIPLANHFLKKFSRKYAKEVEGFTKSAQELLLSYPWYGNVRELKNVIERAVLFSEGKFIDRGELSCLVNSK", "values": [{"measurement": "stoichiometry N", "setting": "[2]", "value": 7}]}
{"protein": "NtrC1^C,R293A (domain or fragment, Aquifex aeolicus) RKENELLRREKDLKEEEYVFESPKMKEILEKIKKISCAECPVLITGESGVGKEVVARLIHKLSDRSKEPFVALNVASIPRDIFEAELFGYEKGAFTGAVSSKEGFFELADGGTLFLDEIGELSLEAQAKLLRVIESGKFYRLGGRKEIEVNVRILAATNRNIKELVKEGKFAEDLYYRLGVIEIEIPPLRERKEDIIPLANHFLKKFSRKYAKEVEGFTKSAQELLLSYPWYGNVRELKNVIERAVLFSEGKFIDRGELSCLVNSK", "values": [{"measurement": "binding result", "setting": "[3]", "value": "binds"}]}
